Measured values taken from patent US20240343803A1 (SHANDONG SIMCERE BIOPHARMACEUTICAL, published 2024).
Numbering of substitutions follows the chain as printed. Each block holds one binder with its values, some of them ahead of it.

How the values were obtained:
[1] = molecular target: T1, human PVRIG-his (AcroBiosystems, Cat NO. PVG-H52H4) (human, UniProt Q6DKI7 41-171, limits assumed); experiment: competition ELISA, PVRIG-His coated, competitor human PVRL2-mFc
T1 construct: also called human PVRIG protein
T1 sequence (looked up): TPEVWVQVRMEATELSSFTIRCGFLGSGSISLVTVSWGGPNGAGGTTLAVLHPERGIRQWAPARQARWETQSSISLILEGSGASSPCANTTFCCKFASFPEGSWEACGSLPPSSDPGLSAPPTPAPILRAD
Experimental: The ELISA plate was pre-coated with 100 μL/well of 0.5 μg/mL human PVRIG-his protein (AcroBiosystems, Cat NO. PVG-H52H4). The tested anti-PVRIG antibodies were diluted from the highest concentration of 16 nM (two-fold concentration). The diluted antibodies were mixed with 18 ng/ml human PVRL2-mFc (AcroBiosystems, Cat NO. CD2-H5257) in equal volume, added into the plate (100 μL/well), and incubated with shaking at room temperature for 2.0 hours. […] A HRP substrate, TMB (Thermo, Cat NO. 34029) was added into wells after washing the plate again for color development. After adding a termination solution to terminate the reaction, the absorbance value was read by a microplate reader (MD i3×). An inhibiting curve was drawn with concentration of antibodies as the abscissa and the corresponding OD value as the ordinate. The IC50 value was calculated by using a Four Parameter Logistic Fit (GraphPadPrism9). The smaller the IC50 value, the stronger the ability of the antibodies inhibits the binding between PVRIG and PVRL2. The positive and negative controls are the same as in Example 8.

[2] = molecular target: T1, human PVRIG-his (AcroBiosystems, Cat …); experiment: SPR (BIAcore), antibody captured on Protein A chip, human PVRIG-His analyte
Experimental: Biacore was used to detect the specific binding between anti-PVRIG antibody and human PVRIG protein. Protein A chip was used in the BIAcore assay. The time required for the chip to capture the diluted antibody and saturate the binding antigen to reach Rₘₐₓ (Maximum binding capacity, 50 RU) was measured by manual run. […] The affinity of antibody for antigen was measured by multi-cycle kinetics. In each cycle, the antibodies were injected prior to the injection of gradient concentraions of PVRIG proteins allowing the occurrence of antibody-antigen association and dissociation After each cycle, the Protein A chip was regenerated by Glycine, pH 1.5 (to remove the proteins on the chip). The affinity of antibody for antigen was calculated by BIAcore T200 analysis software.

[3] = molecular target: T2, human PVRIG-mFc protein (Acro, PVG-H5253) (human, UniProt Q6DKI7 41-171, limits assumed); experiment: FACS competition, PVRIG-mFc binding to CHO-K1-CD112 cells, competitor CD112 on cells
T2 construct: bought protein
T2 sequence (looked up): T1 sequence (looked up)
Experimental: A working solution of human PVRIG-mFc protein (Acro, PVG-H5253) prepared with staining buffer, 1 μg/mL (four-fold concentration), was added into a 96-well plate (50 μL PVRIG-mFc working solution per well). […] The diluted antibodies were added to the well containing 50 μL of PVRIG-mFc. The plate was placed on a microplate shaker at 400 rpm for 1 minute to fully mix the antibodies and PVRIG-mFc proteins, and then incubated at 4° C. for 30 minutes. After the incubation, the cell suspension prepared above (100 μL) was added into the wells, gently mixed with the pipette tip and incubated at 4° C. for 30 minutes. After the incubation, the cells were washed twice with staining buffer (200 μL per well) and centrifuged at 350×g for 5 minutes to discard the supernatant. The PE goat anti-mouse IgG Fc antibody (Biolegend, 405337) was diluted 250 times with staining buffer, added into the washed wells (100 μL per well), mixed well, and stained at 4° C. for 30 minutes. After staining, the cells were washed twice with staining buffer, finally resuspended with 200 μL staining buffer and analyzed by flow cytometry (BD, Canto II). The weaker the fluorescence signal, the stronger the ability of the antibodies blocks the binding of CHO-K1 human CD112 cells to the PVRIG-mFc protein. An antibody binding curve was drawn with concentration of antibodies as the abscissa and the corresponding Mean Fluorescence Intensity (MFI) as the ordinate. The IC50 value of the antibodies and the AUC value of the binding curve were calculated by using a Four Parameter Logistic Fit (GraphPadPrism9). The smaller the IC50 value and AUC value, the stronger the ability of the antibodies competes with CHO-K1-CD112 cells to bind to human PVRIG-mFc protein. […] […] The smaller the percentage value, the stronger the blocking ability of the antibodies.

[4] = molecular target: T3, Fusion protein of extracellular domain of human TIGIT and His-tag (human TIGIT ECD-his) (human); experiment: BIAcore
T3 chain: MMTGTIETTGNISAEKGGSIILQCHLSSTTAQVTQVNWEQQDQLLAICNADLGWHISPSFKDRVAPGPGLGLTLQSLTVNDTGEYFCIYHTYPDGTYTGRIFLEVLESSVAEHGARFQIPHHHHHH

[5] = molecular target: T4, Fusion protein of extracellular domain of human TIGIT and human IgG1 Fc fragment (human TIGIT ECD-hFc) (human); experiment: blocking of TIGIT ECD-hFc binding to CHO-K1 CD155 cells
T4 construct: The entry includes the signal peptide (limits not recoverable) and the human IgG1 Fc
T4 sequence (chain, as listed by the source limits assumed): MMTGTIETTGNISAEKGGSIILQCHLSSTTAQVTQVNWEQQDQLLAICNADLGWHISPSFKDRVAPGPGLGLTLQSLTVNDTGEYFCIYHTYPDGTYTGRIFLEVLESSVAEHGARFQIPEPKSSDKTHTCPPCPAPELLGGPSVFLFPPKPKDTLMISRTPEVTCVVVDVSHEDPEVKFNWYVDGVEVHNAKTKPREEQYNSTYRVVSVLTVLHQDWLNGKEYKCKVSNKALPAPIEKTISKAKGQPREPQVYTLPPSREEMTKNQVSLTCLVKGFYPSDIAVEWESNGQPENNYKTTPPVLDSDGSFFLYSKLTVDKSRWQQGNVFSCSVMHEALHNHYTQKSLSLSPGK
Procedure, shortened: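 Inhibition was expressed as IC50 values derived from the inhibition curves of a cell-based ELISA. CHO-K1 CD155 cells were cultured overnight, fixed, and blocked with 5% skim milk-PBS. Antibodies were first premixed for 0.5 h with human TIGIT ECD-hFc at a working concentration of 30 ng/mL, and the mixture was then added to the cells for 1.5-2 h at 37° C. Bound TIGIT was detected with HRP secondary antibody (1:5000, 37° C, 1 h) and TMB, and read as OD450 nm.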

[6] = molecular target: T5, Full-length cynomolgus monkey TIGIT on CHO-K1 cells (CHO-K1 cynomolgus monkey TIGIT) (cynomolgus monkey); experiment: cell binding, CHO-K1 cynomolgus monkey TIGIT
T5 construct: NCBI XP_015300911.1
T5 sequence (chain, as listed by the source limits assumed): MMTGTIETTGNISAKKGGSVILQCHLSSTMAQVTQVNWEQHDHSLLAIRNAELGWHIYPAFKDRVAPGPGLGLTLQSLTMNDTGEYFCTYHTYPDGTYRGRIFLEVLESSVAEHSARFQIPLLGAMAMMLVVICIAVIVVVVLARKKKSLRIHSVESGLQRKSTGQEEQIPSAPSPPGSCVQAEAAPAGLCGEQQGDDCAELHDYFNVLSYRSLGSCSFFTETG
Procedure, shortened: (§1)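 Binding was measured by flow cytometry after a 60-minute, 4° C incubation of the antibodies with 2×10⁵ CHO-K1 cells displaying full-length human or cynomolgus monkey TIGIT. Antibody titration: 12 points, threefold serial dilution from 80 nM, in 1% BSA-PBS.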

[7] = molecular target: T3, Fusion protein of extracellular domain …; experiment: BIAcore; KD ratio to TIGIT-CHI-006
[8] = molecular target: T6, Fusion protein of extracellular domain of human TIGIT and mouse IgG2a Fc fragment (human TIGIT ECD-mFc) (human); experiment: ELISA, human TIGIT ECD-mFc
T6 construct: The entry includes the signal peptide (limits not recoverable) and the mouse IgG2a Fc
T6 chain: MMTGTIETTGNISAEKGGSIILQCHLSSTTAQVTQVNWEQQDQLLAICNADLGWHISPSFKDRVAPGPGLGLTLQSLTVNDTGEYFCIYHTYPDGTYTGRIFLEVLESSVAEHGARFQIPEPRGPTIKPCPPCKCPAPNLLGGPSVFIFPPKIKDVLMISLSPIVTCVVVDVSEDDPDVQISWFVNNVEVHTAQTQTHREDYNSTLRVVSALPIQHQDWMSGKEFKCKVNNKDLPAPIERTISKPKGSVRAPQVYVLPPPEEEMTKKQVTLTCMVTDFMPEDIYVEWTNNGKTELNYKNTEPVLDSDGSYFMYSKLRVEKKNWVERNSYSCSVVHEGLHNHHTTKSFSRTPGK
Procedure, shortened: (§2)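 Antibodies diluted to 13 nM in 1% BSA, then 3-fold serial dilution for 12 concentrations, incubated with milk-blocked plates at 37° C for 1.5-2 h. Bound antibody detected with HRP-labelled secondary antibody (1:5000, 37° C, 1 h) and TMB, stopped with 1M HCl; OD450 nm read.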

[9] = molecular target: T7, Full-length human TIGIT on CHO-K1 cells (CHO-K1 human TIGIT) (human, UniProt Q495A1 22-244); experiment: cell binding, CHO-K1 human TIGIT high expression strain
T7 construct: NCBI XP_024309156.1; the entry includes the signal peptide (limits not recoverable); The strain (high, medium, low) is named under assay; also called high expression strain 1D2; medium expression strain 2D10
T7 sequence: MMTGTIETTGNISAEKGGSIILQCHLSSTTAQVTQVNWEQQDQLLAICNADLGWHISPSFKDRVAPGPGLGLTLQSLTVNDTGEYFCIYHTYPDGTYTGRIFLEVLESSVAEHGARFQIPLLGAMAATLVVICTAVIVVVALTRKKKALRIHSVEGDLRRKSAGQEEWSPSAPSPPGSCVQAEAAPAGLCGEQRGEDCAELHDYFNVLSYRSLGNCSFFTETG
Procedure, shortened: as §1

[10] = molecular target: T8, Fusion protein of extracellular domain of cynomolgus monkey TIGIT and mouse IgG2a Fc fragment (cynomolgus … (cynomolgus monkey)); experiment: ELISA, cynomolgus monkey TIGIT ECD-mFc
T8 construct: The entry includes the signal peptide (limits not recoverable) and the mouse IgG2a Fc
Procedure, shortened: as §2

B2: PVRIG-A15 (Fc fusion)
chain: QVQLVESGGGLVQAGGSLRLSCVASGRTFSANTMAWFRQAPGKEREFVAYTRWTDDNTDYASYADFVKGRFTAFRDNTRNTMYLQMNRLRPEDTAVYYCAAATTRGTYYSAGDYNSWGQGTQVTVSS
notes: heavy chain antibody VHH-hinge-CH2-CH3, human IgG1 constant part; not shown: human IgG1 hinge-CH2-CH3
IC50 [1]: 0.208 nM
Kd [2]: 0.377 nM
koff [2]: 2.31e-05 s⁻¹
kon [2]: 61200 M⁻¹ s⁻¹
% AUC to COM701-hIgG4 [3]: 77.2%
% AUC to SRF813-hIgG1 [3]: 77.3%
% IC50 to COM701-hIgG4 [3]: 54.1%
% IC50 to SRF813-hIgG1 [3]: 72.4%

B4: TIGIT-006-H5L1 (antibody, V domains shown)
VH: EVQLQESGPGLVKPSETLSLTCAVSGYSMTSDYWNWIRQPPGKKLEYIGYISYSGRTYYNPSLKSRVTISRDTSKNQFSLKLSSVTAADTAVYYCARGDYSNYGGAMYDWGQGTTVTVSS
VL: DIVMTQTPLSLSVTPGQPASISCRASQGVSTTIAWYLQKPGQSPQLLIYSASYRYTGVPDRFSGSGSGTDFTLKISRVEAEDVGVYYCQQYYSSPFTFGGGTKVEIK
notes: Humanized anti-TIGIT antibody
Kd [4]: 0.0713 nM
koff [4]: 0.000163 s⁻¹
kon [4]: 2.29e+06 M⁻¹ s⁻¹
IC50 [5]: 0.537 nM
EC50 [6]: 0.162 nM
Fold change vs chimeric antibodies (KD) [7]: 0.92 fold
EC50 [8]: 0.0108 nM
EC50 [9]: 0.0399 nM
EC50 [10]: 0.0182 nM

B5: TIGIT-006-H2L3 (antibody, V domains shown)
VH: B4 VH with K44G, Y47W
VL: DIVMTQSPDSLAVSLGERATINCRASQGVSTTIAWYQQKPGQSPKLLIYSASYRYTGVPRFSGSGSGTDFTLTISSLQAEDVAVYYCQQYYSSPFTFGGGTKVEIK
notes: Humanized anti-TIGIT antibody
Kd [4]: 0.515 nM
koff [4]: 0.000216 s⁻¹
kon [4]: 420000 M⁻¹ s⁻¹
IC50 [5]: 0.633 nM
EC50 [6]: 0.255 nM
Fold change vs chimeric antibodies (KD) [7]: 6.65 fold
EC50 [8]: 0.0103 nM
EC50 [9]: 0.0353 nM
EC50 [10]: 24.4 nM

B7: TIGIT-006-H1L3 (antibody, V domains shown)
VH: B4 VH with M29I, K44G, Y47W
VL: B5 VL
notes: Humanized anti-TIGIT antibody
Kd [4]: 2.66 nM
koff [4]: 0.000384 s⁻¹
kon [4]: 144000 M⁻¹ s⁻¹
IC50 [5]: 1.23 nM
binding result [6]: no binding
Fold change vs chimeric antibodies (KD) [7]: 34.4 fold
EC50 [8]: 0.0185 nM
EC50 [9]: 0.0596 nM
binding result [10]: no binding

B8: TIGIT-006-H3L3 (antibody, V domains shown)
VH: B4 VH with Y47W
VL: B5 VL
notes: Humanized anti-TIGIT antibody
Kd [4]: 0.482 nM
koff [4]: 0.000176 s⁻¹
kon [4]: 365000 M⁻¹ s⁻¹
IC50 [5]: 0.681 nM
EC50 [6]: 6.29 nM
Fold change vs chimeric antibodies (KD) [7]: 6.23 fold
EC50 [8]: 0.0095 nM
EC50 [9]: 0.0317 nM
EC50 [10]: 0.779 nM

Other lines, results leading:

IC50 [1]: 0.255 nM
Kd [2]: 0.404 nM
koff [2]: 6.36e-05 s⁻¹
kon [2]: 157000 M⁻¹ s⁻¹
% AUC to COM701-hIgG4 [3]: 58.9%
% AUC to SRF813-hIgG1 [3]: 58.9%
% IC50 to COM701-hIgG4 [3]: 48.1%
% IC50 to SRF813-hIgG1 [3]: 64.4%
B1: PVRIG-A30 (Fc fusion)
chain: QVQLVESGGGLVQPGGSLRLSCAASGRTDSMNVMGWFRRAPGKEREFVARIKWNGDTTYTAYADFLKGRFTLYGAVARNRVYLQMNSLQPEDTAVYYCAAGEVSGSSYSPDYGMHYWGKGTLVTVSS
notes: as for B2

IC50 [1]: 0.0557 nM
Kd [2]: 0.283 nM
koff [2]: 3.97e-05 s⁻¹
kon [2]: 141000 M⁻¹ s⁻¹
% AUC to COM701-hIgG4 [3]: 117%
% AUC to SRF813-hIgG1 [3]: 103%
% IC50 to COM701-hIgG4 [3]: 98.9%
% IC50 to SRF813-hIgG1 [3]: 96.4%
B3: PVRIG-A60 (Fc fusion)
chain: QVQLVESGGGLVQSGGSLRLSCAASGRTRSMYVMGWFRQAPGKEREFVGRIKWSGDTTYTSYADFVKGRFTLYGNQARNTVYLQMNSLKPEDAAVYYCNLRRLDGVNYWGKGTLVTVSS
notes: as for B2

Kd [4]: 0.08 nM
koff [4]: 0.000184 s⁻¹
kon [4]: 2.3e+06 M⁻¹ s⁻¹
IC50 [5]: 0.576 nM
EC50 [6]: 0.0849 nM
Fold change vs chimeric antibodies (KD) [7]: 1.03 fold
EC50 [8]: 0.0111 nM
EC50 [9]: 0.0239 nM
EC50 [10]: 0.0172 nM
B6: TIGIT-006-H5L2 (antibody, V domains shown)
VH: B4 VH
VL: B4 VL with L37Q, Q45K
notes: Humanized anti-TIGIT antibody
